This note sets out measurements from publication PMC12565409, “Computational–Experimental Identification of Palindromic Motifs Bound by Bacterial XRE Family Transcriptional Regulators”.

The target in this data set is Motif_38 protein HW450_07255 (UniProt A0A7G5FC37 1-70). Nature of the data set: EMSA; EMSA: 20 mM Tris-HCl pH 7.5, 250 mM NaCl, 5% glycerol; 2 uL of 1 uM FAM-DNA (labeled:unlabeled strand 1:4) + 2 uL of ~10 uM protein in 20 uL; 37 C, 30 min. To be noted: protein: recombinant; tags: His (pET-28a, Ni column); label: 5'FAM on strand 1; blunt. Background: Mobility shift assays separate free from complexed probe on a gel.

B1: Mot38-WT (dsDNA)
DNA 1: AATAAATCGGCACAATCGTGCCGATTTTGG
DNA 2: CCAAAATCGGCACGATTGTGCCGATTTATT
For the molecule B1, the binding result is listed as “binds”.
